The results in this text go back to patent US20220348674A1.

The term EC50 denotes the concentration needed to bring the measured effect to its halfway point. A lower EC50 goes with greater potency.

Experiment [1] concerns the target CD40 on Ramos-Blue cells (human).
Experiment [2] addresses cell surface human CD40 on HEK-CD40 cells (human) (UniProt P25942). Kind of experiment: flow cytometry on HEK-CD40 cells; mAb at 5 ug/ml.
The target is the same in experiment [3]. Kind of experiment: flow cytometry on HEK-CD40 cells; mAb at 12 ug/ml. (Flow cytometry measures light scatter and fluorescence of single cells or particles in a stream.)
Experiment [4] has the same target. Kind of experiment: flow cytometry on HEK-CD40 cells; mAb at 1.7 ug/ml.
Experiment [5] has the same target. Kind of experiment: flow cytometry on HEK-CD40 cells; mAb at 0.02 ug/ml.
The target is the same in experiment [6]. Kind of experiment: flow cytometry on HEK-CD40 cells; mAb at 0.06 ug/ml.
Experiment [7] shares this target. Kind of experiment: flow cytometry on HEK-CD40 cells; mAb at 0.56 ug/ml.
Experiment [8] has the same target. Kind of experiment: flow cytometry on HEK-CD40 cells; mAb at 0.007 ug/ml.
Experiment [9] has the same target. Kind of experiment: flow cytometry on HEK-CD40 cells; mAb at 0.78 ug/ml (so in the source).
Experiment [10] shares this target. Kind of experiment: flow cytometry, titration on HEK-CD40 cells, CD40 MFI, anti-human IgG secondary antibody.

Chain of cell surface human CD40 on HEK-CD40 cells (human) (P25942 21-277): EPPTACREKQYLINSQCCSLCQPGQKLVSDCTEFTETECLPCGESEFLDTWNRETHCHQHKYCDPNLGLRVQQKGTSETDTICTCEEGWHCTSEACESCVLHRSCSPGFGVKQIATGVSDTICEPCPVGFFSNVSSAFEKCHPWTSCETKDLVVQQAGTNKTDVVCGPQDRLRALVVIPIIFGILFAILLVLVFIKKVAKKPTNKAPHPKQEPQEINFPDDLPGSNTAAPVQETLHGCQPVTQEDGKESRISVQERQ
Chain of CP-870,893, IgG2 isotype fully human anti-CD40 mAb (antibody) (VH): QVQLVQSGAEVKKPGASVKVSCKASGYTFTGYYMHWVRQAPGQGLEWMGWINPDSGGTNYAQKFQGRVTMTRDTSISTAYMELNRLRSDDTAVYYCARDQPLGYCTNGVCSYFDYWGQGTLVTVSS
Chain of CP-870,893, IgG2 isotype fully human anti-CD40 mAb (antibody) (VL): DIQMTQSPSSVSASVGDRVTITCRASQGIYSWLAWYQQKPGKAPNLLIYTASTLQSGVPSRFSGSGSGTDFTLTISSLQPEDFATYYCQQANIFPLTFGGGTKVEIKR

The substance “APX005m, humanized anti-CD40 mAb, IgG1 isotype with S267E mutation (antibody)” gave an EC50, w/o PDL1 (Ramos-Blue NFkB-SEAP reporter, OD630, HEK-control cells added) in experiment [1] of 2.6 nM. In addition, in experiment [1], the EC50, with PDL1 (Ramos-Blue NFkB-SEAP reporter, OD630, HEK-PDL1 cells added) was 2.67 nM. Besides, the MFI in experiment [2] stood at 24500; in [3], 24700; in experiment [4], 23300; in experiment [5], 2360; in experiment [6], 4590; in [7], 18200. Also, the MFI in experiment [8] amounted to 1150; in experiment [9] it was 9840. In experiment [10], this substance had an EC50 of 0.28 µg/mL.
“CP-870,893, IgG2 isotype fully human anti-CD40 mAb (antibody)” gave an EC50, w/o PDL1 (Ramos-Blue NFkB-SEAP reporter, OD630, HEK-control cells added) in experiment [1] of 0.15 nM. This substance also showed an EC50, with PDL1 (Ramos-Blue NFkB-SEAP reporter, OD630, HEK-PDL1 cells added) in [1] of 0.12 nM. Also, the MFI in experiment [2] amounted to 20900; in experiment [3], 23700; in experiment [4] it was 14100; in experiment [5], 635; in experiment [6] it was 1530; in [7], 6790. Further, the MFI in [8] was 271; in [9], 3670. In experiment [10], this substance returned an EC50 of 1.58 µg/mL.
On to “Human IgG1 isotype control (Bioxell, Catalog BE 0297) (antibody)”, for which the MFI turned out to be 112 in experiment [2]; 73.7 in [3]; 61.3 in experiment [4]; 40.1 in experiment [5]; 40.2 in [6]; 30.7 in experiment [7]. The results for the MFI in [8] and in experiment [9] were 28.3 and 32.3, respectively.
